{
  "source": "patent US20200157519A1",
  "about": "(IMMUNWORK, published 2020)",
  "binders": {"B1": {"name": "phage-displayed 3D5 scFv (scFv)", "scFv": "DIQMTQSPSSLSASVGDRVTITCRASQDVSNNVAWYQQKPGKAPKLLIFWSPWLYSGVPSRFSGSGSGTDFTLTISSLQPEDFATYYCQQGWDSPVTFGQGTKVEIKRGGGGSGGGGSGGGGSEVQLVESGGGLVQPGGSLRLSCAASGFTISDFGIHWVRQAPGKGLEWVASIWPSGGYTYYADSVKGRFTISADTSKNTAYLQMNSLRAEDTAVYYCARSWFYSWYDYWGQGTLVTVSS", "notes": "Tested as secreted scFv in culture supernatant, detected through its E-tag"}, "B2": {"name": "scFv clone 3C2 (scFv, V domains shown)", "VH": "EVQLVESGGGLVQPGGSLRLSCAASGFTIGNSSIHWVRQAPGKGLEWVAGIWPYWGSTYYADSVKGRFTISADTSKNTAYLQMNSLRAEDTAVYYCARFGINNDGFMDYWGQGTLVTVSS", "VL": "DIQMTQSPSSLSASVGDRVTITCRASQDVSGWVAWYQQKPGKAPKLLISSTGSLYSGVPSRFSGSGSGTDFTLTISSLQPEDFATYYCQQYYDFPITFGQGTKVEIKR", "notes": "Tested as a secreted scFv with E-tag from the phage library"}, "B3": {"name": "scFv clone 7A3 (scFv, V domains shown)", "VH": "EVQLVESGGGLVQPGGSLRLSCAASGFTINDWSIHWVRQAPGKGLEWVAYIGPFWGSTFYADSVKGRFTISADTSKNTAYLQMNSLRAEDTAVYYCARGYFGFDYWGQGTLVTVSS", "VL": "B2 VL with S30G, T51P, G52R, Y92F, D93S, F94S, I96F", "notes": "as for B2"}, "B4": {"name": "scFv clone 8F2 (scFv, V domains shown)", "VH": "EVQLVESGGGLVQPGGSLRLSCAASGFTINNYGIHWVRQAPGKGLEWVAGIWPYWGYTYYADSVKGRFTISADTSKNTAYLQMNSLRAEDTAVYYCARFDSNSYSSYSDGFMDYWGQGTLVTVSS", "VL": "B2 VL with S30D, G31N, W32S, T51A, G52R, D93N, F94Y", "notes": "as for B2"}, "B5": {"name": "recombinant anti-fibrin 3D5 antibody (full-length) (antibody, human IgG1, kappa, V domains shown)", "VH": "EVQLVESGGGLVQPGGSLRLSCAASGFTISDFGIHWVRQAPGKGLEWVASIWPSGGYTYYADSVKGRFTISADTSKNTAYLQMNSLRAEDTAVYYCARSWFYSWYDYWGQGTLVTVSS", "VL": "DIQMTQSPSSLSASVGDRVTITCRASQDVSNNVAWYQQKPGKAPKLLIFWSPWLYSGVPSRFSGSGSGTDFTLTISSLQPEDFATYYCQQGWDSPVTFGQGTKVEIKR", "notes": "Expressed from the pG1K vector in Expi293F cells, purified on Protein A"}, "B6": {"name": "recombinant anti-fibrin 102-10 antibody (full-length) (antibody, human IgG1, kappa, V domains shown)", "VH": "QIQLVQSGPELKKPGETVKISCKASGYTFTNYGMNWVKQAPGKGLKWMGWINTYTGEATYADDFKGRFAFSLETSANTAYVQINNLKNEDTATYFCARLMDYWGQGTSVTVSS", "VL": "DIQMTQSPSSLSASLGGKVTITCKASQDINKYIAWFQHKPGKGPRLLIHYTSTLQPGIPSRFSGSGSGRDYSFSISNLEPEDLATYYCLQYDNLTWTFGGGTKLEIKR"}},
  "note": "Changes are numbered by the printed parent chain.",
  "data": [
    {"molecular_target": "T1, human fibrin (human fibrinogen coated on the plate and treated with thrombin) (human, UniProt P02671 36-629; P02675 45-491; P02679 27-437)", "T1 construct": "Made on the plate: coated human fibrinogen (Sigma) treated with 1.0 U/mL thrombin, CaCl2 and L-cysteine", "T1 sequence (looked up) 1": "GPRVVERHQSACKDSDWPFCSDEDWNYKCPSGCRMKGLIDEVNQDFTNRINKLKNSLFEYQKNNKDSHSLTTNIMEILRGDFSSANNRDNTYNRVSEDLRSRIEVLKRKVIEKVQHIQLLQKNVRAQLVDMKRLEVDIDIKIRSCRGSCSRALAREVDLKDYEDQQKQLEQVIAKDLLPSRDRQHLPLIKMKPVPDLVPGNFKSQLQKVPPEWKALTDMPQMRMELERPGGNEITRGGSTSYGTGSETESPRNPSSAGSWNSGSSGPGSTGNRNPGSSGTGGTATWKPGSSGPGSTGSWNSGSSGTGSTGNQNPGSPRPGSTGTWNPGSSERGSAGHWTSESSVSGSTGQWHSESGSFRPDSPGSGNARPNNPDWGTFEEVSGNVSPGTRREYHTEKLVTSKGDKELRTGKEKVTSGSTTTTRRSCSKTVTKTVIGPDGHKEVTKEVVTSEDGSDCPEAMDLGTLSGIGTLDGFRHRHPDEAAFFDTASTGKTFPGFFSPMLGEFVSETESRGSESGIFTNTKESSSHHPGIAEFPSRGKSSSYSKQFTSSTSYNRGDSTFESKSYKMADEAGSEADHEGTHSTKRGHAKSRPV", "T1 sequence (looked up) 2": "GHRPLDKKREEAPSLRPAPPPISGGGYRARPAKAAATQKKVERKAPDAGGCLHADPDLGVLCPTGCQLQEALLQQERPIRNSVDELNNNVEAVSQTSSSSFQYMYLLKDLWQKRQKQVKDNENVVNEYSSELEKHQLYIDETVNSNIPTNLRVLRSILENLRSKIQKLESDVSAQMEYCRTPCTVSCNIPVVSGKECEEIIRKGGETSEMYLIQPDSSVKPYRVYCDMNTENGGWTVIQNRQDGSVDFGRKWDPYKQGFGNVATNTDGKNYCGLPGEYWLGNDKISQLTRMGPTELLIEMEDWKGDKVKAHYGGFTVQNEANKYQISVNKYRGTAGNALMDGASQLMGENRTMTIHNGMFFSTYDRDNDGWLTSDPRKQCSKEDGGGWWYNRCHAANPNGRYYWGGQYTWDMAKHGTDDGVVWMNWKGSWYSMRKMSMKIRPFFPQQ", "T1 sequence (looked up) 3": "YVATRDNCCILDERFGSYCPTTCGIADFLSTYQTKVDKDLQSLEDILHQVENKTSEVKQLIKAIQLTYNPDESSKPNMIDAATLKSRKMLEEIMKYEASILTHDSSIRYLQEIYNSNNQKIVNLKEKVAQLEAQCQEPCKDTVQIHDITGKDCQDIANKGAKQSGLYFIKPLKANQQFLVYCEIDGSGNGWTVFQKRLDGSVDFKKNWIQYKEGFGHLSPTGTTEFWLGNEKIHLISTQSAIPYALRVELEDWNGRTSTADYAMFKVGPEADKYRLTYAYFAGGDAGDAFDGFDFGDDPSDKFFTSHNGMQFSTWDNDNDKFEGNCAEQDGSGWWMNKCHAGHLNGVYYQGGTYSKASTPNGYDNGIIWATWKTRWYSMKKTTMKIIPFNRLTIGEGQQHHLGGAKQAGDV", "experiment": "single colony ELISA, secreted scFv on coated fibrin, anti-E-tag-HRP", "protocol": "(§1) E. coli strain ER2738 infected with single-clonal phages each harboring a selected scFv gene in its phagemid was grown in the mid-log phase in 2YT broth (16 g/L tryptone, 10 g/l yeast extract, 5 g/l NaCl, pH 7.0) with 100 μg/ml ampicillin in deep well at 37° C. with shaking. After broth reaching an OD₆₀₀ of 1.0, IPTG was added to a final concentration of 1 μg/ml. The plates were incubated at 37° C. overnight with rigorously shaking. Thereafter, the plates were centrifuged at 4,000 g for 15 minutes at 4° C.\n(§2) For soluble scFv binding test, ELISA was carried out. In brief, 96-well Maxisorp 96-well plate (Nunc) was coated with fibrin (0.5 μg/100 μL PBS per well) or a negative control antigen, human fibrinogen, for 18 hours with shaking at 4° C. After treated with 300 μL of blocking buffer for one hour, 100 μL of secreted scFv in the supernatant was mixed with 100 μL of blocking buffer and then added to the coated plate for another one hour. Goat anti-E-tag antibody (conjugated with HRP, 1:4000, Cat. No. AB19400, Abcam) was added to the plate for one hour. TMB substrate (50 μL per well) was added to each well and the absorbance at 450 nm was measured after reactions were stopped by adding 1 N HCl (50 μL per well). The OD₄₅₀ for each well was measured to determine the binding affinity of each scFv clone to fibrin or fibrinogen. For each scFv clone, the OD₄₅₀ value with respect to fibrin was divided by with the OD₄₅₀ value with respect to fibrinogen to obtain an OD₄₅₀ ratio representing the selective binding of said scFv to fibrin over fibrinogen. In the single colony ELISA analysis, a total of 192 phage clones after the 3rd panning round was subjected to the present analysis. Among them, 12 scFv clones that bound to fibrin with an OD₄₅₀ ratio greater than 10 were further characterized by sequencing their scFv-coding gene. Six different DNA sequences were identified. […] The amino acid sequence of an scFv clone D10, which binds to human fibrin with an OD₄₅₀ of 1.3, is shown in SEQ ID NO: 4.", "units": {"OD450_Fibrin": "OD450"}, "values": [
      {"binder": "B1", "OD450_Fibrin": 0.829},
      {"binder": "B2", "OD450_Fibrin": 0.759},
      {"binder": "B3", "OD450_Fibrin": 0.428},
      {"binder": "B4", "OD450_Fibrin": 0.527}
    ]},
    {"molecular_target": "T1, human fibrin (human fibrinogen coated …)", "experiment": "single colony ELISA, OD450 on fibrin divided by OD450 on fibrinogen", "protocol": "as §1, §2", "values": [
      {"binder": "B1", "OD450 ratio (fibrin over fibrinogen)": 377},
      {"binder": "B2", "OD450 ratio (fibrin over fibrinogen)": 64.9},
      {"binder": "B3", "OD450 ratio (fibrin over fibrinogen)": 20.5},
      {"binder": "B4", "OD450 ratio (fibrin over fibrinogen)": 14.4}
    ]},
    {"molecular_target": "T2, crosslinked human fibrin treated by human factor XIIIa (human, UniProt P02671 36-629; P02675 45-491; P02679 27-437, crosslinked by factor XIIIa)", "T2 construct": "Coated human fibrinogen treated with thrombin and 0.55 ug factor XIIIa (Zedira) per well; also called crosslinked fibrin", "T2 sequence (looked up) 1": "T1 sequence (looked up) 1", "T2 sequence (looked up) 2": "T1 sequence (looked up) 2", "T2 sequence (looked up) 3": "T1 sequence (looked up) 3", "experiment": "ELISA on crosslinked fibrin plate, HRP-protein L", "values": [
      {"binder": "B5", "binding result": "binds"},
      {"binder": "B6", "binding result": "binds"}
    ]},
    {"molecular_target": "T1, human fibrin (human fibrinogen coated …)", "experiment": "ELISA on fibrin-coated plate, HRP-protein L", "protocol": "Each fibrin plate was prepared as follows. 100 μL of TBS containing a final concentration of 1.0 U/mL thrombin (Sigma), 2 mM CaCl, and 7 mM L-cysteine (Merck) was added to the wells of the fibrinogen plate, which was then washed with TBS and blocked with the buffer (5% non-fat dry milk/PBS). After the blocking, 100 μL of antibodies were added to each well, and the plate was incubated at room temperature for 1 hour. The plate was then washed three times, the HRP-conjugated protein L diluted to 1/5000 was added to the wells and incubated for 1 hour at room temperature. The wells were washed three times and added with 100 μL of TMB substrate buffer. 5 minutes later, the color development was stopped with 1 M HCl. The optical density (OD) was measured at 450 nm using a microplate reader.", "values": [
      {"binder": "B5", "binding result": "binds"},
      {"binder": "B6", "binding result": "binds"}
    ]}
  ]
}
